Source: article PMC5503242

Legend:
[1] = molecular target: ClC-rm1_eGFP, ClC-rm1 with eGFP and a 10x(His) tag at the C-terminus (Ralstonia metallidurans); experiment: SEC; Superose 6 or Superdex 200, 0.03% (w/v) DDM, 150 mM NaCl, 5 mM KCl, 20 mM Tris-HCl pH 8.0; also after exchange to DM, OG or amphipol A8-35
[2] = molecular target: ClC-ec1, E. coli ClC protein (E. coli) (UniProt P37019); experiment: SEC; purified ClC-ec1, apparent mass around 150 kDa with associated detergent
[3] = molecular target: ClC-rm1, ClC protein of Ralstonia metallidurans (WP_011515329), with C-terminal 6x(His) tag (Ralstonia metallidurans); experiment: SDS-PAGE (dimer resistant to denaturation); NUPAGE 4-12% Bis-Tris gel of ClC-rm1 eluted from Ni2+ resin or after SEC; Western blot with His tag antibody
[4] = molecular target: ClC-rm1, ClC protein of Ralstonia metallidurans (WP_011515329), with C-terminal 6x(His) tag (Ralstonia metallidurans); experiment: SEC; Superose 6 or Superdex 200, 0.03% (w/v) DDM, 150 mM NaCl, 5 mM KCl, 20 mM Tris-HCl pH 8.0; also after exchange to DM, OG or amphipol A8-35

ClC-rm1_eGFP, ClC-rm1 with eGFP and a 10x(His) tag at the C-terminus (natural protein)
stoichiometry N [1]: 2

ClC-ec1, E. coli ClC protein (from UniProt P37019 1-473) (natural protein)
stoichiometry N [2]: 2

ClC-rm1, ClC protein of Ralstonia metallidurans (WP_011515329), with C-terminal 6x(His) tag (natural protein)
stoichiometry N [3]: 2 | stoichiometry N [4]: 2
